The target in assay [1] is streptavidin (UniProt P22629). The assay is described as follows: panning/deep seq., Streptavadin rep 1.
For assay [2], the target named is streptavidin (UniProt P22629). The assay is described as follows: panning/deep seq., Streptavadin rep 2.
Assay [3] has as its target streptavidin (UniProt P22629). The assay is described as follows: panning/deep seq., Streptavadin rep 3.
The target in assay [4] is streptavidin (UniProt P22629). The assay is described as follows: panning/deep seq., Ratio col 1 (Streptavadin/Blank by arithmetic).
The target in assay [5] is streptavidin (UniProt P22629). The assay is described as follows: panning/deep seq., Ratio col 2 (Streptavadin/Naive by arithmetic).
The target in assay [6] is streptavidin (UniProt P22629). The assay is described as follows: panning/deep seq., Ratio col 3 (Streptavadin/Bulk amplified by arithmetic).
In assay [7] the target is T1, Bovine carbonic anhydrase II (bovine, UniProt P00921 2-260).
T1 construct: Commercial protein; also called BCA
The assay is described as follows: panning/deep seq., Carbonic rep 1 [Carbonic Anhydrase].

For assay [8], the target named is T1, Bovine carbonic anhydrase II. The assay is described as follows: panning/deep seq., Carbonic rep 2 [Carbonic Anhydrase].
Assay [9] shares this target. The assay is described as follows: panning/deep seq., Carbonic rep 3 [Carbonic Anhydrase].
For assay [10] the target is unchanged. The assay is described as follows: panning/deep seq., Ratio col 1 (Carbonic/Blank by arithmetic) [Carbonic Anhydrase].
Assay [11] shares this target. The assay is described as follows: panning/deep seq., Ratio col 2 (Carbonic/Naive by arithmetic) [Carbonic Anhydrase].
The target is the same in assay [12]. The assay is described as follows: panning/deep seq., Ratio col 3 (Carbonic/Bulk amplified by arithmetic) [Carbonic Anhydrase].

We go through 28 substances from patent US10724034B2, “Genetic encoding of chemical post-translational modification for phage-displayed libraries” (THE GOVERNORS OF THE UNIVERSITY OF ALBERTA, priority 2014, dated 2020).

T1 sequence (P00921 2-260 limits assumed): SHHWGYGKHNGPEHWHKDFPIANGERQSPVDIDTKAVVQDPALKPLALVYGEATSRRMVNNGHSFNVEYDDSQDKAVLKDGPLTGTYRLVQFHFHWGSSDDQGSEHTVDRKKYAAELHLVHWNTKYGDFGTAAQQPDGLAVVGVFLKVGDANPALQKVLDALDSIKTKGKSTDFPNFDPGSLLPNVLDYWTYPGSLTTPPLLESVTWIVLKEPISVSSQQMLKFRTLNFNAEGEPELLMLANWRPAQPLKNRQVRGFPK
streptavidin, sequence (P22629 37-163 limits assumed): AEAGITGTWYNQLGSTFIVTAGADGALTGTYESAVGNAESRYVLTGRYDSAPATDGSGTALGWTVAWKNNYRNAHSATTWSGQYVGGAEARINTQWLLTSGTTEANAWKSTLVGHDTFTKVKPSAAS

For the substance Bio-AHPL (peptide), the copy number was determined as 382 with streptavidin [1], 113 with streptavidin [2] and 333 with streptavidin [3]. Besides, the Ratio with streptavidin [4] was found to be 920; with streptavidin [5], 138; with streptavidin [6], 138.

As to Bio-GYTQ (peptide), the copy number was found to be 240 with streptavidin [1], 227 in the assay with streptavidin [2] and 147 in the assay with streptavidin [3]. Moreover, the Ratio with streptavidin [4] worked out at 682; in the assay with streptavidin [5], 68; with streptavidin [6], 614.

Bio-HFTN (peptide): the copy number worked out at 246 with streptavidin [1], 135 in the assay with streptavidin [2] and 98 in the assay with streptavidin [3]. Also, the values for the Ratio with streptavidin [4], in the assay with streptavidin [5] and with streptavidin [6] were 532, 532 and 68, respectively.

Bio-HKLN (peptide): the copy number with streptavidin [1] was determined as 95; in the assay with streptavidin [2], 98; in the assay with streptavidin [3] it was 72. The Ratio is 294 with streptavidin [4], 88 with streptavidin [5] and 12 in the assay with streptavidin [6].

As for Bio-HLRV (peptide), the figures for the copy number with streptavidin [1], with streptavidin [2] and with streptavidin [3] were 58, 110 and 168, respectively. Moreover, the Ratio is 373 in the assay with streptavidin [4], 373 in the assay with streptavidin [5] and 56 in the assay with streptavidin [6].

Take Bio-HMPR (peptide): the copy number stood at 118 with streptavidin [1], 121 with streptavidin [2] and 71 in the assay with streptavidin [3]. Also, the Ratio turned out to be 344 with streptavidin [4], 52 with streptavidin [5] and 44 with streptavidin [6].

In the case of Bio-HPSY (peptide), the copy number was 85 with streptavidin [1], 214 in the assay with streptavidin [2] and 104 in the assay with streptavidin [3]. Further, the Ratio in the assay with streptavidin [4] was determined as 448; with streptavidin [5], 67; in the assay with streptavidin [6], 58.

For Bio-PALP (peptide), the copy number with streptavidin [1] came out at 125; with streptavidin [2], 108; in the assay with streptavidin [3], 210. In addition, the Ratio with streptavidin [4] turned out to be 492; with streptavidin [5], 492; in the assay with streptavidin [6], 89.

Turning to Bio-PFVQ (peptide), the copy number with streptavidin [1] was found to be 82; in the assay with streptavidin [2], 61; with streptavidin [3] it was 54. For the same substance, the Ratio stood at 219 with streptavidin [4], 219 in the assay with streptavidin [5] and 99 with streptavidin [6].

Turning to Bio-PHLP (peptide), the results for the copy number with streptavidin [1], in the assay with streptavidin [2] and in the assay with streptavidin [3] were 84, 37 and 123, respectively. Moreover, the values for the Ratio in the assay with streptavidin [4], with streptavidin [5] and with streptavidin [6] were 271, 14 and 15, respectively.

In the case of Bio-PHYN (peptide), the copy number with streptavidin [1] worked out at 53; with streptavidin [2], 110; in the assay with streptavidin [3] it was 70. Further, the values for the Ratio with streptavidin [4], with streptavidin [5] and with streptavidin [6] were 259, 21 and 58, respectively.

As to Bio-PLAQ (peptide), the copy number in the assay with streptavidin [1] was found to be 110; with streptavidin [2], 71; in the assay with streptavidin [3] it was 50. The Ratio in the assay with streptavidin [4] stood at 257; in the assay with streptavidin [5] it was 38; with streptavidin [6] it was 33.

On to Bio-PQMS (peptide), for which the copy number worked out at 282 in the assay with streptavidin [1], 248 with streptavidin [2] and 453 in the assay with streptavidin [3]. The values for the Ratio with streptavidin [4], with streptavidin [5] and with streptavidin [6] were 1090, 41 and 197, respectively.

With Bio-PSIG (peptide), the copy number with streptavidin [1] came to 145; in the assay with streptavidin [2], 125; in the assay with streptavidin [3], 174. In addition, the results for the Ratio in the assay with streptavidin [4], with streptavidin [5] and in the assay with streptavidin [6] were 493, 21 and 56, respectively.

Bio-PTHT (peptide): the copy number turned out to be 154 with streptavidin [1], 178 with streptavidin [2] and 118 with streptavidin [3]. Besides, the Ratio with streptavidin [4] amounted to 500; with streptavidin [5] it was 75; with streptavidin [6], 64.

For the substance Bio-PVSI (peptide), the copy number with streptavidin [1] was determined as 75; with streptavidin [2], 94; with streptavidin [3] it was 128. Besides, the Ratio with streptavidin [4] amounted to 330; with streptavidin [5] it was 49; with streptavidin [6], 74.

In the case of Bio-VHAW (peptide), the copy number with streptavidin [1] is 73; with streptavidin [2], 39; in the assay with streptavidin [3], 119. Further, the Ratio with streptavidin [4] turned out to be 257; in the assay with streptavidin [5], 257; in the assay with streptavidin [6], 38.

As to Bio-VHNT (peptide), the results for the copy number with streptavidin [1], with streptavidin [2] and with streptavidin [3] were 29, 87 and 110, respectively. The Ratio with streptavidin [4] was found to be 251; with streptavidin [5], 75; with streptavidin [6], 75.

As for Bio-WYPH (peptide), the copy number with streptavidin [1] amounted to 85; with streptavidin [2], 150; with streptavidin [3] it was 127. The values for the Ratio with streptavidin [4], with streptavidin [5] and in the assay with streptavidin [6] were 402, 121 and 72, respectively.

Bio-YMNN (peptide): the copy number with streptavidin [1] worked out at 110; in the assay with streptavidin [2], 134; with streptavidin [3] it was 40. Also, the Ratio came to 316 with streptavidin [4], 24 with streptavidin [5] and 142 with streptavidin [6].

With SA-QIEH (peptide), the copy number in assay [7] is 35; in [8] it was 20; in [9], 27. Besides, the Ratio in [10] was determined as 91; in [11] it was 3; in assay [12] it was 2.

With SA-TAFI (peptide), the copy number in assay [7] was 44; in assay [8], 58; in assay [9] it was 48. Also, the Ratio in assay [10] is 167; in assay [11], 167; in [12], 75.

As to SA-WFKL (peptide), the copy number in assay [7] is 3; in [8], 5; in assay [9], 2. The Ratio in assay [10], in assay [11] and in assay [12] was 11 each time.

Regarding SA-WKQQ (peptide), the copy number in [7] was 3; in assay [8], 2; in [9], 4. The Ratio in assay [10], in assay [11] and in [12] was 10 in each case.

Consider SA-WLVL (peptide), for which the copy number is 4 in [7], 4 in [8] and 3 in assay [9]. For the same substance, the Ratio in assay [10], in assay [11] and in [12] was 12 in each case.

For SA-WNSK (peptide), the copy number in assay [7] turned out to be 3; in assay [8] it was 4; in assay [9], 2. Moreover, the Ratio in [10], in assay [11] and in [12] was 10 each time.

In the case of SA-WNTK (peptide), the copy number amounted to 121 in assay [7], 256 in [8] and 228 in assay [9]. The Ratio in assay [10] is 672; in [11], 19; in [12] it was 38.

For SA-WPPP (peptide), the copy number in assay [7] came to 10; in assay [8], 10; in assay [9], 15. Besides, the results for the Ratio in assay [10], in assay [11] and in assay [12] were 39, 6 and 35, respectively.
